Targets include BRK(h) (human) (UniProt Q13882); CDK2/cyclinE(h) (human) (UniProt P24941); CDK6/cyclinD3(h) (human) (UniProt Q00534); CaMKIV(h) (human) (UniProt Q16566); DAPK1(h) (human) (UniProt P53355); HIPK2(h) (human) (UniProt Q9H2X6); LOK(h) (human) (UniProt O94804); MAPK2(h) (human) (UniProt P28482); MELK(h) (human) (UniProt Q14680); PAK2(h) (human) (UniProt Q13177); PDGFRα(V561D)(h) (human) (UniProt P16234); PDGFRβ(h) (human) (UniProt P09619); PKBγ(h) (human) (UniProt Q9Y243); PKCδ(h) (human) (UniProt Q05655); Pim-3(h) (human) (UniProt Q86V86); Ron(h) (human) (UniProt Q04912); Ros(h) (human) (UniProt P08922); WNK3(h) (human) (UniProt Q9BYP7).

Common to all, as to assay: cell-based or functional assay
Experiment [1] concerns the target CDK9/cyclin T1(h) (human) (UniProt P50750).
The target of the next experiment is T1, IKKβ(h) (human) (UniProt O14920).
T1 sequence (looked up): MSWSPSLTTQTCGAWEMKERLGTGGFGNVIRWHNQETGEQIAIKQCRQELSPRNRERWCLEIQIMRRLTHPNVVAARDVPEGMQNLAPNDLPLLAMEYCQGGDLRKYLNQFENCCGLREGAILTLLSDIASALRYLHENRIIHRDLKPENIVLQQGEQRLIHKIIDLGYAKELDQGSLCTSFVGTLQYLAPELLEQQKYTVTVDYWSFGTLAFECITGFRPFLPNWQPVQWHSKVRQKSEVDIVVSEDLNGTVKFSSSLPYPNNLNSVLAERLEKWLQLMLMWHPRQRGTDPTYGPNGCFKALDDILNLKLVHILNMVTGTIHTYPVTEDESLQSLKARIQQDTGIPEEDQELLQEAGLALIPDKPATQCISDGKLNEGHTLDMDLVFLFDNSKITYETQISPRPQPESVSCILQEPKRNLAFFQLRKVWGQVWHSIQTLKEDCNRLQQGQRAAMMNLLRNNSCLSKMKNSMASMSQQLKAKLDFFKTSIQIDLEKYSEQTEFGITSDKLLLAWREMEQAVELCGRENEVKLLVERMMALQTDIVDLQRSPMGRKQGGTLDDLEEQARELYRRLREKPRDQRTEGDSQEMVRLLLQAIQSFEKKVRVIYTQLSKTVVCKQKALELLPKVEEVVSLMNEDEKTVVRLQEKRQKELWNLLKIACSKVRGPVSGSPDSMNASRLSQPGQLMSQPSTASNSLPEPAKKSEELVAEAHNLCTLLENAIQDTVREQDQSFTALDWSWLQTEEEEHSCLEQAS

The target in a further experiment is T2, LKB1(h) (human) (UniProt Q15831).
T2 sequence (looked up): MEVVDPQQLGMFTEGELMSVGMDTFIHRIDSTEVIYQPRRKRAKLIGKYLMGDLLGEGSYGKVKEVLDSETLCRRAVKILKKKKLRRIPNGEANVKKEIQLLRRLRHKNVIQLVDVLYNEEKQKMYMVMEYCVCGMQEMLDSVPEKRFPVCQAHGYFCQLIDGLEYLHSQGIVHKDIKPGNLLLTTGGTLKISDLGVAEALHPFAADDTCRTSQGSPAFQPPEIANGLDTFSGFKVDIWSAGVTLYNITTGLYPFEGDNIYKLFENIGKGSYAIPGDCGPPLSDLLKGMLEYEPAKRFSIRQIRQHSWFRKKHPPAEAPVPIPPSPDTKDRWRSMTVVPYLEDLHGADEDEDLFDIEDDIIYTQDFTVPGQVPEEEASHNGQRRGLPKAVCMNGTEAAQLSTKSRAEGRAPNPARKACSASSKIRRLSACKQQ

The next experiment addresses T3, SAPK3(h) (human) (UniProt P53778).
T3 sequence (looked up): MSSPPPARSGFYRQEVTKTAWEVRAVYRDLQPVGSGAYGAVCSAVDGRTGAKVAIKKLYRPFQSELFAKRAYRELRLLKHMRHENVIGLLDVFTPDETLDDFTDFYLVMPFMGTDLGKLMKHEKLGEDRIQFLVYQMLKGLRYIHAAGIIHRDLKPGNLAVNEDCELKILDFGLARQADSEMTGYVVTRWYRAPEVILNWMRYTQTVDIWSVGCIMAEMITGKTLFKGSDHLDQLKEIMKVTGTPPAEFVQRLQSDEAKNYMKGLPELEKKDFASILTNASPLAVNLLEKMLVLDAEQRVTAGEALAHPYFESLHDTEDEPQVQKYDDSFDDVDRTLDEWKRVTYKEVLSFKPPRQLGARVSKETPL

The target in the next experiment is T4, TSSK1(h) (human) (UniProt Q9BXA7).
T4 sequence (looked up): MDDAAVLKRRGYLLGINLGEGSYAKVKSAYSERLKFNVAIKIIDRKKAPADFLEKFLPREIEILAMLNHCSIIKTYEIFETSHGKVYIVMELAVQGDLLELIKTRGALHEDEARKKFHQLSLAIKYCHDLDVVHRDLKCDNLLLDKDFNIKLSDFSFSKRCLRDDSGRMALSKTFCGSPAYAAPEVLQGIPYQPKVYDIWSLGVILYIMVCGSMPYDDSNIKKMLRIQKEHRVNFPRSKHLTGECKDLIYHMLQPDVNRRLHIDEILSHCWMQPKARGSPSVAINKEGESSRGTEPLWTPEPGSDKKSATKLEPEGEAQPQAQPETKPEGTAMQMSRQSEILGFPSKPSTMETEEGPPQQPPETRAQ

Sequence of Ron(h) (human) (Q04912 983-1400 limits assumed): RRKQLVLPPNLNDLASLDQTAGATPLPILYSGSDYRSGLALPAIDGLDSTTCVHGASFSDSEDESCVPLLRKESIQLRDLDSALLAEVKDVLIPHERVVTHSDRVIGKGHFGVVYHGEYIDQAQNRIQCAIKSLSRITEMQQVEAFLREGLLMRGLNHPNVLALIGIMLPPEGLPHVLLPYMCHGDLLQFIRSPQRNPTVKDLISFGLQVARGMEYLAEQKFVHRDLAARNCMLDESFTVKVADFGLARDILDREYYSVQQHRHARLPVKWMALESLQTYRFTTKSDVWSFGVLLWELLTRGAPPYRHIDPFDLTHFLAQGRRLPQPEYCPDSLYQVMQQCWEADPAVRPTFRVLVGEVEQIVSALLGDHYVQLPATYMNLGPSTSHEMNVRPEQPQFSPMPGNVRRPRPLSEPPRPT
Sequence of PDGFRβ(h) (human) (P09619 557-1106 limits assumed): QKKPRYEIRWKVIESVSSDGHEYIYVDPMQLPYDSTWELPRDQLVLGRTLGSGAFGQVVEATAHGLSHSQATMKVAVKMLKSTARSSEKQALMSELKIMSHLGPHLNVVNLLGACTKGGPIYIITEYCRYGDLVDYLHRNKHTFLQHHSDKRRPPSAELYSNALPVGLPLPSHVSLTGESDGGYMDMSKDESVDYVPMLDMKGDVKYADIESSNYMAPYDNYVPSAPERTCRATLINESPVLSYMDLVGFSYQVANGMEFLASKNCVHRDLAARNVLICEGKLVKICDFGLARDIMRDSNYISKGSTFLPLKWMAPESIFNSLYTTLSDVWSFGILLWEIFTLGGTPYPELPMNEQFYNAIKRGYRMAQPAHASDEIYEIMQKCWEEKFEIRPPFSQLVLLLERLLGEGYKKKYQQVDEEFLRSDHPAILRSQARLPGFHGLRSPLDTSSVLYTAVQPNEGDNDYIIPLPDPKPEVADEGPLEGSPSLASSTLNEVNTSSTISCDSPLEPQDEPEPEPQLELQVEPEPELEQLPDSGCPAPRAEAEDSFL
Sequence of Ros(h) (human) (P08922 1883-2347 limits assumed): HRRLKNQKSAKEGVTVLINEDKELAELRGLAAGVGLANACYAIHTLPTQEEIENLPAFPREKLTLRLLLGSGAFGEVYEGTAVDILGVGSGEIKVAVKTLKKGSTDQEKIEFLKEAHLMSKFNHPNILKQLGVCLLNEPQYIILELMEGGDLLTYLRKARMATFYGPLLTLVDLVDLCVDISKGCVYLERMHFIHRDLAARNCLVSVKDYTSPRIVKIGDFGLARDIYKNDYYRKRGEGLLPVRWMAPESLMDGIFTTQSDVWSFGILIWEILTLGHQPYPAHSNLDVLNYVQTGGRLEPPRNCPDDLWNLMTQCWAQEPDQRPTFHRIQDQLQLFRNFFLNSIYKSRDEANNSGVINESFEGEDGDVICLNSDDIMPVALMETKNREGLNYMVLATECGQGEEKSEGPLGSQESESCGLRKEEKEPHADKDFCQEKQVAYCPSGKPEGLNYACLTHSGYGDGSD
Sequence of PKBγ(h) (human) (Q9Y243 whole entry): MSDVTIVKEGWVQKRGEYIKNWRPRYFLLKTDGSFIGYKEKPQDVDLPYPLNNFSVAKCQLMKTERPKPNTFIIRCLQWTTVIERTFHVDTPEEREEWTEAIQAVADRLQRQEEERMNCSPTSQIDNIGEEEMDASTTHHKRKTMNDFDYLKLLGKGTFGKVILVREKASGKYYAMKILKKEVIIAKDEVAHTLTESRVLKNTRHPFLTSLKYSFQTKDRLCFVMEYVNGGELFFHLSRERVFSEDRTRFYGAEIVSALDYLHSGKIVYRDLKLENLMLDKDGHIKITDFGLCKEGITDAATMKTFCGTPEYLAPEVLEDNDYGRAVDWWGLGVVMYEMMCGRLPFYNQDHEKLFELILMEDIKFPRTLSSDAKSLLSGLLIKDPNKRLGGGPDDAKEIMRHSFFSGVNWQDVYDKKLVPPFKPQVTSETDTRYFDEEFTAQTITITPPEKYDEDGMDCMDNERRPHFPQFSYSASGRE
Sequence of MAPK2(h) (human) (P28482 whole entry): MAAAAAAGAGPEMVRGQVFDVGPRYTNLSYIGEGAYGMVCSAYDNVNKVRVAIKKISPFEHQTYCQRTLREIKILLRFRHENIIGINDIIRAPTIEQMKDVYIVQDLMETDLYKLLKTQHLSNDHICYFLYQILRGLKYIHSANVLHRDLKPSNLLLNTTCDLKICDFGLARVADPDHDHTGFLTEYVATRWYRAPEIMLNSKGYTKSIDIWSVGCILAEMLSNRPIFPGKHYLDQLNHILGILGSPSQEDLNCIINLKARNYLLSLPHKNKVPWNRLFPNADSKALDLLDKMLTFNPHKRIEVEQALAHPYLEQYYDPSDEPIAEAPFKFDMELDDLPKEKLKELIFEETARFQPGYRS
Sequence of PAK2(h) (human) (Q13177 whole entry): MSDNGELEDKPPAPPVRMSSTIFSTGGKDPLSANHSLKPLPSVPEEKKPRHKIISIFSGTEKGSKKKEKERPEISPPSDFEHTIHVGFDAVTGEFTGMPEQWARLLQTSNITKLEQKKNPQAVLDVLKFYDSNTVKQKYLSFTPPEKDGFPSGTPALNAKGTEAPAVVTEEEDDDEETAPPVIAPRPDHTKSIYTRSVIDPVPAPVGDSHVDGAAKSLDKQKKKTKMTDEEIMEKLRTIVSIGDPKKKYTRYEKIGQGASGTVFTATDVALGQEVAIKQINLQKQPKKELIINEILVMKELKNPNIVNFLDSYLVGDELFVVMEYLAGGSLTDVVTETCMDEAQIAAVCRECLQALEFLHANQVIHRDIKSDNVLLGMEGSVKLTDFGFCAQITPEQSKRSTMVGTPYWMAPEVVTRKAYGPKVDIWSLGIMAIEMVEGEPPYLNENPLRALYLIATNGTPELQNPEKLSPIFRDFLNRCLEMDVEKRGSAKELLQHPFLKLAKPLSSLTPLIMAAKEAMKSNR
Sequence of CDK6/cyclinD3(h) (human) (Q00534 whole entry, chain 1 of 2): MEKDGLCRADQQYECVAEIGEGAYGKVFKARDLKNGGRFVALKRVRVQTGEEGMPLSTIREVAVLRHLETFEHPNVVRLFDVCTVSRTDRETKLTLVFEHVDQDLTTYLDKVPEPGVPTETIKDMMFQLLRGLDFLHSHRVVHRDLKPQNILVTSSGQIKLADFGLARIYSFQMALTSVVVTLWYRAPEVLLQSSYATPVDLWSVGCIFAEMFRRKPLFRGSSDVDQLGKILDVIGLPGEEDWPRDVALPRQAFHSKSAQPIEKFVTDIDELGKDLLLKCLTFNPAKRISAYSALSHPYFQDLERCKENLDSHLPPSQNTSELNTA
Sequence of CDK6/cyclinD3(h) (human) (P30281 whole entry, chain 2 of 2, further chain): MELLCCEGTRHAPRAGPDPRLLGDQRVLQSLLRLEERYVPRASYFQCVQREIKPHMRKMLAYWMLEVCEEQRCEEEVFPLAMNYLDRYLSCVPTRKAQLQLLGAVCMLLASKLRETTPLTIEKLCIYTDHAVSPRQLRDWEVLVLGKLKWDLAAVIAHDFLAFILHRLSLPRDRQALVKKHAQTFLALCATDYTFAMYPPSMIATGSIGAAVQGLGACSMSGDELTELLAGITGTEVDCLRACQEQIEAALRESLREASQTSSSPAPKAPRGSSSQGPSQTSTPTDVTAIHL
Sequence of PDGFRα(V561D)(h) (human) (P16234 550-1089 V561D limits assumed): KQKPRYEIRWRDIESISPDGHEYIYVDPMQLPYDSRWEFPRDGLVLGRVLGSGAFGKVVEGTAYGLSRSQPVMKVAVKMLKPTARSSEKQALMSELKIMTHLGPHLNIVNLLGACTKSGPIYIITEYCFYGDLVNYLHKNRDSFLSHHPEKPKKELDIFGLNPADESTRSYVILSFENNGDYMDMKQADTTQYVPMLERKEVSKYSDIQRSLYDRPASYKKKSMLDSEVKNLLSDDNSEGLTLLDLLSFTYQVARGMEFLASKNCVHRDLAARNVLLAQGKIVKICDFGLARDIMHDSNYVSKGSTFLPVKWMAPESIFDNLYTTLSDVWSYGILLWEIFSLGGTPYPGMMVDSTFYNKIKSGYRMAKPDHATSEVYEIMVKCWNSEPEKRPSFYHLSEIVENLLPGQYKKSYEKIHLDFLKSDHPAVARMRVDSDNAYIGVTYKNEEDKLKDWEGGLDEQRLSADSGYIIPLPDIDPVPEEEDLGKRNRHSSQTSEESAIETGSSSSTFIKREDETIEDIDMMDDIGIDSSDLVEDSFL

Consider MMI-0500 (peptide), for which the % activity at 100 µM in the experiment with BRK(h) (human) is 41%; with CDK2/cyclinE(h) (human) it was 19%; with CDK6/cyclinD3(h) (human), 23%; in experiment [1] it was 6%; with CaMKIV(h) (human), -1%; with DAPK1(h) (human), 0%. In addition, the % activity at 100 µM came out at 38% with HIPK2(h) (human); 71% with IKKβ(h) (human); 51% with LKB1(h) (human); 7% with LOK(h) (human); 60% in the experiment with MAPK2(h) (human); 0% in the experiment with MELK(h) (human). In addition, the % activity at 100 µM was found to be 44% with PAK2(h) (human); 146% with PDGFRα(V561D)(h) (human); 40% in the experiment with PDGFRβ(h) (human); 20% with PKBγ(h) (human); 61% with PKCδ(h) (human); 37% with Pim-3(h) (human). Besides, the % activity at 100 µM in the experiment with Ron(h) (human) was 46%; in the experiment with Ros(h) (human), 150%; with SAPK3(h) (human) it was 24%; with TSSK1(h) (human), 46%; in the experiment with WNK3(h) (human), 9%.
Regarding MMI-0300 (peptide), the % activity at 100 µM with BRK(h) (human) turned out to be 35%; with CDK2/cyclinE(h) (human), 94%; with CDK6/cyclinD3(h) (human), 86%; in experiment [1], 91%; with CaMKIV(h) (human) it was 17%; in the experiment with DAPK1(h) (human), 46%. In addition, the % activity at 100 µM with HIPK2(h) (human) came out at 73%; in the experiment with IKKβ(h) (human), 84%; with LKB1(h) (human), 101%; in the experiment with LOK(h) (human), 37%; with MAPK2(h) (human), 98%; with MELK(h) (human) it was 16%. Also, the % activity at 100 µM is 65% in the experiment with PAK2(h) (human); 82% with PDGFRα(V561D)(h) (human); 81% with PDGFRβ(h) (human); 20% in the experiment with PKBγ(h) (human); 101% with PKCδ(h) (human); 80% in the experiment with Pim-3(h) (human). Further, the % activity at 100 µM with Ron(h) (human) is 93%; with Ros(h) (human), 95%; in the experiment with SAPK3(h) (human), 84%; with TSSK1(h) (human), 79%; in the experiment with WNK3(h) (human), 77%.
As for MMI-0400 (peptide), the % activity at 100 µM is 18% with BRK(h) (human); 83% with CDK2/cyclinE(h) (human); 85% in the experiment with CDK6/cyclinD3(h) (human); 235% in [1]; 18% with CaMKIV(h) (human); 36% with DAPK1(h) (human). Moreover, the % activity at 100 µM with HIPK2(h) (human) amounted to 90%; with IKKβ(h) (human) it was 84%; in the experiment with LKB1(h) (human), 89%; in the experiment with LOK(h) (human), 18%; with MAPK2(h) (human) it was 93%; in the experiment with MELK(h) (human), 17%. In addition, the % activity at 100 µM in the experiment with PAK2(h) (human) is 59%; with PDGFRα(V561D)(h) (human) it was 100%; in the experiment with PDGFRβ(h) (human), 53%; in the experiment with PKBγ(h) (human), 41%; in the experiment with PKCδ(h) (human), 90%; with Pim-3(h) (human), 80%. Besides, the % activity at 100 µM with Ron(h) (human) was 79%; in the experiment with Ros(h) (human), 99%; in the experiment with SAPK3(h) (human), 79%; with TSSK1(h) (human) it was 79%; with WNK3(h) (human) it was 74%.

The record behind these values is patent US20150064134A1.
